Source: US20070202043A1 (ARIUS RESEARCH, published 2007)

What was measured:
[1] = target: T1, human TROP-2 on the surface of human cell lines (the AR52A301.5 antigen) (human, UniProt P09758 27-323); experiment: flow cytometry, 20 micrograms/mL antibody, OVCAR-3 ovarian cancer cells (printed twice in the paragraph, once as OVAR-3)
T1 construct: whole, on cells; The cell lines are not transfected; also called IDAC 141205-03 antigen; TROP-2 antigenic moiety
T1 sequence (looked up): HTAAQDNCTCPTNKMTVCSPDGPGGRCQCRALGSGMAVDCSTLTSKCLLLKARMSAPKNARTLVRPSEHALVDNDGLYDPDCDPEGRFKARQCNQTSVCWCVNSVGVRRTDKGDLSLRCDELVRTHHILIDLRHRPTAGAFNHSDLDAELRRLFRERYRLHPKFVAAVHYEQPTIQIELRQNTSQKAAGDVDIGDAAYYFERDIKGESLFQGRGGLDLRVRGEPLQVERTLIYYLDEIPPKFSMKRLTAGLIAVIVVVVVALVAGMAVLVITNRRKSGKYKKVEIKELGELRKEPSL
Protocol: (§1) All cell lines, except for the majority of ovarian cancer cell lines, were obtained from the American Type Tissue Collection (ATCC, Manassas, Va.).
(§2) Cells were prepared for FACS by initially washing the cell monolayer with DPBS (without Ca⁺⁺ and Mg⁺⁺). Cell dissociation buffer (INVITROGEN, Burlington, ON) was then used to dislodge the cells from their cell culture plates at 37° C. After centrifugation and collection, the cells were resuspended in DPBS containing MgCl₂, CaCl₂ and 2 percent fetal bovine serum at 4° C. […] Flow cytometric acquisition of the cells was assessed by running samples on a FACSarray™ using the FACSarray™ System Software (BD Biosciences, Oakville, ON). The forward (FSC) and side scatter (SSC) of the cells were set by adjusting the voltage and amplitude gains on the FSC and SSC detectors.

[2] = target: T1, human TROP-2 on the surface of human …; experiment: flow cytometry, 20 micrograms/mL antibody, T.Tn esophageal cancer cells
Protocol: as §2

[3] = target: T1, human TROP-2 on the surface of human …; experiment: flow cytometry, 20 micrograms/mL antibody, HT-29 colon cancer cells
Protocol: as §2

[4] = target: T1, human TROP-2 on the surface of human …; experiment: flow cytometry, 20 micrograms/mL antibody, BxPC-3 pancreatic cancer cells
Protocol: as §2

[5] = target: T1, human TROP-2 on the surface of human …; experiment: flow cytometry, 20 micrograms/mL antibody, DU-145 prostate cancer cells
Protocol: as §2

[6] = target: T1, human TROP-2 on the surface of human …; experiment: flow cytometry, 20 micrograms/mL antibody, MDA-MB-468 breast cancer cells
Protocol: as §2

[7] = target: T1, human TROP-2 on the surface of human …; experiment: flow cytometry, 20 micrograms/mL antibody, PL45 pancreatic cancer cells
Protocol: as §1, §2

[8] = target: T1, human TROP-2 on the surface of human …; experiment: flow cytometry, 20 micrograms/mL antibody, OVCA-429 ovarian cancer cells
Protocol: as §1, §2

[9] = target: T1, human TROP-2 on the surface of human …; experiment: flow cytometry, 20 micrograms/mL antibody, Hs888.Lu non-cancer lung cells (weaker binding)
Protocol: as §2

[10] = target: T1, human TROP-2 on the surface of human …; experiment: flow cytometry, 20 micrograms/mL antibody, Colo-205 colon cancer cells
Protocol: as §2

[11] = target: T1, human TROP-2 on the surface of human …; experiment: flow cytometry, 20 micrograms/mL antibody, MCF-7 breast cancer cells
Protocol: as §1, §2

[12] = target: T1, human TROP-2 on the surface of human …; experiment: flow cytometry, 20 micrograms/mL antibody, NCI-H520 lung cancer cells (weaker binding)
Protocol: as §1, §2

[13] = target: T1, human TROP-2 on the surface of human …; experiment: flow cytometry, 20 micrograms/mL antibody, OCC-1 ovarian cancer cells
Protocol: as §1, §2

[14] = target: T1, human TROP-2 on the surface of human …; experiment: flow cytometry, 20 micrograms/mL antibody, PC-3 prostate cancer cells
Protocol: as §1, §2

[15] = target: T1, human TROP-2 on the surface of human …; experiment: flow cytometry, 20 micrograms/mL antibody, OV2008 ovarian cancer cells
Protocol: as §1, §2

[16] = target: T1, human TROP-2 on the surface of human …; experiment: flow cytometry, 20 micrograms/mL antibody, DLD-1 colon cancer cells
Protocol: as §2

[17] = target: T1, human TROP-2 on the surface of human …; experiment: cell-based or functional assay
[18] = target: T1, human TROP-2 on the surface of human …; experiment: flow cytometry, 20 micrograms/mL antibody, FaDu head and neck cancer cells
Protocol: as §1, §2

[19] = target: T1, human TROP-2 on the surface of human …; experiment: flow cytometry, 20 micrograms/mL antibody, C-13 ovarian cancer cells
Protocol: as §2

[20] = target: T1, human TROP-2 on the surface of human …; experiment: flow cytometry, 20 micrograms/mL antibody, Hey ovarian cancer cells
Protocol: as §2

- mean fluorescence intensity fold increase above isotype control [1]: 22.1 fold
- mean fluorescence intensity fold increase above isotype control [2]: 18.6 fold
- mean fluorescence intensity fold increase above isotype control [3]: 6.7 fold
- mean fluorescence intensity fold increase above isotype control [4]: 29.4 fold
- mean fluorescence intensity fold increase above isotype control [5]: 3.9 fold
- mean fluorescence intensity fold increase above isotype control [6]: 22.7 fold
- mean fluorescence intensity fold increase above isotype control [7]: 12.9 fold
- mean fluorescence intensity fold increase above isotype control [8]: 3.4 fold
- mean fluorescence intensity fold increase above isotype control [9]: 2.6 fold
- mean fluorescence intensity fold increase above isotype control [10]: 38.6 fold
- mean fluorescence intensity fold increase above isotype control [11]: 16 fold
- mean fluorescence intensity fold increase above isotype control [12]: 2.1 fold
- mean fluorescence intensity fold increase above isotype control [13]: 17.8 fold
- mean fluorescence intensity fold increase above isotype control [14]: 5 fold
- mean fluorescence intensity fold increase above isotype control [15]: 32.7 fold
- mean fluorescence intensity fold increase above isotype control [16]: 82.8 fold
- mean fluorescence intensity fold increase above isotype control [18]: 59.8 fold
- mean fluorescence intensity fold increase above isotype control [19]: 38.7 fold
- mean fluorescence intensity fold increase above isotype control [20]: 5.9 fold
B1: AR52A301.5 monoclonal antibody (hybridoma IDAC 141205-03) (antibody, mouse IgG1, V domains shown)
VH: EVQLQQSGPELVKPGASVKISCKASGYTFTDYNMHWVKQSHGKSLEWIGYIYPYNGGTGYNQRFKNKATLTVDISSSTAYMELRSLTSEDSAVYYCAREEDYYGFDYWGQGTTLTVSS
VL: DVVMTQTPLSLPVSLGQDASISCRSSQSLVHSYGNTYLHWYLQKPGQSPKLLIYKVSNRFSGVPDRFSGSGSGTDFTLKISRVEAEDMGVYFCSQSTHVYTFGGGTKLEIK
notes: Murine IgG1, kappa from the hybridoma; also called IDAC 141205-03 antibody
- cytotoxicity on OVCAR-3 cells relative to the positive control cycloheximide [17]: 53 percent
